This is an account of results in patent publication US10538591B2, “Anti-fibulin-3 antibodies and uses thereof” (THE BRIGHAM AND WOMEN'S HOSPITAL, INC., priority 2014, dated 2020).

“Also recorded” adds a separate entry of the source.

One data set has as its system Normal human astrocytes. Kind of data set: Viability of normal human astrocytes. It counts as cell-based. The settings on record: mAb428.2, conditions not given. The protocol:
Normal human astrocytes and glioma cell lines (U251MG, U87MG and CNS1) were cultured as adherent cells in 96-well plates (10,000 cells/well). Three primary cultures of glioma-initiating cells (GBM8, GBM9 and GBM34) were cultured in suspension using appropriate medium in 96-well plates (25,000 cells/well). All cells were exposed to anti-Fib3/911 (50 μg/mL) or its pre-immune serum for 72 h, followed by measurement of cell viability as indicated in FIG. 5. […] In contrast, normal astrocytes were not affected by the antibody (** p<0.01; *** p<0.001, one-way ANOVA for each cell line)
Antibodies against fibulin-3 induce cytotoxicity in a wide range of glioma cells but not in normal cells. […] This antibody was added to cultures of different glioma cell lines (U251MG, U87MG, CNS1) as well as cultures of glioma initiating cells that produce large amounts of fibulin-3 (GBM8, GBM9, GBM34). […] Vehicle control (PBS) and the pre-immune serum of anti-fibulin-3/91I were tested as controls. Cell viability was measured after 72 hours. […] Neither the vehicle nor the pre-immune serum affected cell viability (FIG. 7).

The subject of data set [1] is GBM34 glioblastoma stem cells. Briefly: Intratumoral injection in subcutaneous GBM34 xenografts. It counts as in vivo, Athymic mice. The protocol: Athymic mice received sub-cutaneous (SQ) bilateral implants of GBM34 glioblastoma stem cells (1×10^6 cells/50 μl). Tumors were allowed to grow until they reached a volume of 100 mm^3. Animals (N=5/group) were then injected with mAb428.2 (10 mg/kg) in the left-side tumor and non-immune mouse IgG1 in the right-side tumor, every two days (total: 4 injections). Mice were sacrificed when any of their tumors reached a length >18 mm. […] Growth curves were analyzed by repeated-measures ANOVA and final parameters were compared by paired T-test.
Athymic mice received SQ bilateral implants of GBM34 glioblastoma stem cells (1×10^6 cells/50 μl). Tumors were allowed to grow until they reached a volume of 100 mm^3. Animals (N=3/group) were then injected with mAb428.3C11 (30 mg/kg) in the left-side tumor and non-immune mouse IgG1 in the right-side tumor, every two days (total: 3 injections). Mice were sacrificed when any of their tumors reached a length >=20 mm. […] Growth curves were analyzed by repeated-measures ANOVA and final parameters were compared by paired T-test.

For data set [2], the system named is fibulin-3-induced Notch signaling. Briefly: Notch-reporter luminescent assay in CNS1 glioma cells transfected with fibulin-3 cDNA. The data set is classed as cell-based. The settings on record: for effect on fibulin-3-induced Notch activity: monoclonal antibody 100 μg/ml, 0, 2, 6 and 24 h. How it is done: Glioma cells (CNS I line) carrying a Notch-reporter luminescent system were transfected with fibulin-3 cDNA (or a control plasmid) and incubated in serum-free conditions for 24 h.
Antibodies against fibulin-3 block the molecular mechanism triggered by this protein. To confirm whether the cytotoxic effects were related to specific inhibition of the molecular mechanisms of fibulin-3, the antibody anti-Fib3/911 was added to glioma cells (CNS1 cell line) that had been transfected to overexpress fibulin-3. Overexpression of fibulin-3 in the glioma cells increased Notch signaling activity as expected.
Glioma cells (CNS1 line) carrying a Notch-driven luminescent reporter system were transfected with fibulin-3 cDNA (Fib3 OE) or a control plasmid (Control) and incubated in serum-free conditions for 24 h. The following day the antibodies anti-Fib3/911 (50 μg/ml) or mAb428.3C11 (100 μg/ml) were added to the cultures and Notch activity was measured after 0, 2, 6, and 24 h.
Glioma cells (CNS1 line) carrying a Notch-driven luminescent reporter system were transfected with fibulin-3 cDNA (Fib3 OE) or a control plasmid (Control) and incubated in serum-free conditions for 24 h. Results on the left panel show the effect of adding mAb428.2 (100 μg/ml), followed by measurement of Notch activity after 0, 2, 6, and 24 h. Results on the right panel show the effect of adding variable concentrations of mAb428.2 (0, 5, 10, 25, 50, and 100 μg/ml), followed by measurement of Notch activity after 6 h.

In data set [3] the test system is NFkB signaling induced by fibulin-3. Briefly: NF-kB luminescent reporter in U251 glioma cells transfected with fibulin-3 cDNA. It counts as cell-based. The settings on record: 100 μg/ml, 0, 2, 6 and 24 h. How it is done:
Glioma cells (U251 line) were transfected with a luminescent reporter plasmid driven by NF-kB signaling (pGL4.32[luc2P/NF-κB-RE/Hygro], PROMEGA). Cells were co-transfected with plasmids carrying fibulin-3 cDNA (Fib3 OE) or a control cDNA (Control) and incubated in serum-free conditions for 24 h. The following day mAb428.2 (100 μg/ml) was added to the cultures and NFkB signaling activity was measured after 0, 2, 6, and 24 h.

The next data set concerns the target T1, fibulin-4 (Homo sapiens, UniProt O95967).
T1 sequence (O95967 24-443): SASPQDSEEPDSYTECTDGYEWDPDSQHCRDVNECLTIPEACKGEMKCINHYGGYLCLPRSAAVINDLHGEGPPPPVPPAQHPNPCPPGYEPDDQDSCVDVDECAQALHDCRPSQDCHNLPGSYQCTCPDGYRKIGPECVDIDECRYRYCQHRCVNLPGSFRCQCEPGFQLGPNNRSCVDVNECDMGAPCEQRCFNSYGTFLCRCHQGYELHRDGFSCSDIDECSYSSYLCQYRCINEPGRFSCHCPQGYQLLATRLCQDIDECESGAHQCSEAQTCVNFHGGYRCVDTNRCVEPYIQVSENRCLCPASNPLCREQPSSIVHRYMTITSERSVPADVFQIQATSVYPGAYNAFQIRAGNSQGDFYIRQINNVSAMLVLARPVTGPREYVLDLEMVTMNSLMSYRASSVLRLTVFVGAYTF
Briefly: Cross-reactivity against homologous fibulin-4. The data set is classed as binding.

For data set [4] the following is noted: mouse, in vivo.

B1: mAb428.2: mouse monoclonal IgG1 kappa antibody against human fibulin-3 peptide SEQ ID NO:2; VH SEQ ID NO: 3, VL SEQ ID NO: 4 (antibody, V domains shown)
VH: QIQLVQSGPELKKPGETVKISCKASGYSFTTYGMSWVKQAPGKGLKWMGWINTYSGVPTYADDFKGRFAFFLETSASTAYLQINNLKNEDTATYFCARWVDYWGQGTTLTVSS
VL: DIKMTQSPSSMYASLGERVTITCKASQDIKSYLSWHQQKPWKSPKTLIYYATSLADGVPSRFSGSGSGQDYSLTISSLESDDTATYYCLQHGKSPYTFGGGTKLEIK
With B1, in the data set on Normal human astrocytes, the “effect on normal astrocytes” value is “without effects on normal astrocytes”. Also, in data set [1] (10 mg/kg intratumoral every two days, 4 injections), the “tumor volume and weight compared to control IgG1” value is “reduction in tumor volume and weight”. The “tumor volume and weight compared to control IgG1” value in data set [1] (30 mg/kg intratumoral every two days, 3 injections) was “reduction in tumor volume and weight”. Besides, in data set [1] (direct intratumoral injection, GBM stem cell xenograft), the median volume reduction was determined as 45%. For the same molecule, the “dependence of Notch inhibition” value in data set [2] (0, 5, 10, 25, 50 and 100 μg/ml, 6 h, 100 μg/ml over 0-24 h) is “time- and concentration-dependent”. In addition, the “effect on fibulin-3-induced Notch activity” value in data set [2] is “blocked fibulin-3-dependent Notch activation; also recorded: strong inhibitory effect”. The “effect on fibulin-3-induced Notch activity” value in data set [2] (listed as mAb428.3C11) was “blocked”. In addition, in data set [2] (t=4 h, anti-Fib3/911 50 μg/ml, mAb428.3C11 100 μg/ml), the “fibulin-3 effect on Notch activation” value is on record as “completely abolished fibulin-3 effects on Notch activation”. In addition, in data set [2] (t=24 h, anti-Fib3/911 50 μg/ml, mAb428.3C11 100 μg/ml), the “levels of Notch activity” value is given as “indistinguishable from controls”. Also, in data set [3], the “effect on fibulin-3-induced NFkB signaling” value is recorded as “blocking of this effect”. Further, the “cross-reactivity against fibulin-4” value with fibulin-4 was “no cross-reactivity”. Moreover, in data set [4], the “accumulation in skin or connective tissues” value is given as “did not accumulate in these tissues”, the “amount detected through the skull” value was “very small but higher than the amount of a control IgG1 antibody” and the “detection in intracranial tumors” value was “not detected in significant amounts”. In addition, in data set [4] (2.5 mg/kg), the “detection in subcutaneous tumors” value is recorded as “still detectable with high intensity of fluorescence”; the “time of accumulation in the liver” value is recorded as “>= 6”; the “time of accumulation of fluorescence in the bladder” value stood at 2 h; the “time of clearance from bladder and liver” value was “>= 24 h”.
